Data taken from paper PMC10834949.

Legend:
[1] = target: Aβ42 fibrils; assay: co-sedimentation; sample of co-incubated BRICHOS-Aβ42 fibrils centrifuged; BRICHOS in the supernatant measured by SDS-PAGE
[2] = target: Aβ42 fibrils; assay: SPR; sonicated Aβ42 fibrils immobilised by amine coupling on a C1 chip (BIAcore 3000); R221E Bri2 BRICHOS injected at 0.195-50 uM in HBS-E (10 mM HEPES, 150 mM NaCl, 0.2 mM EDTA, pH 7.5), 30 uL/min; two-phase association and two-phase dissociation model, global fit; apparent constants
[3] = target: Aβ42 fibrils; assay: NMR titration; solution 1H-15N HSQC of 74 uM 15N-labelled BRICHOS before and after adding sonicated unlabelled Aβ42 fibrils at 1:1 (related to monomeric Aβ42); 20 mM sodium phosphate, 0.2 mM EDTA, pH 7.4, 25 °C; loss of signal intensity taken as the bound population

## recombinant human Bri2 BRICHOS R221E monomer (domain or fragment)
[1]
  percent of BRICHOS in the soluble fraction: 95%
  percent of total BRICHOS bound: 5 to 10%
[2]
  KD app of the strong phase (two-phase model): 12.9 nM
[3]
  percent of HSQC signal intensity left after adding fibrils at 1:1: 90%
  percent of total BRICHOS bound: 5 to 10%
  relative signal attenuation (population of bound BRICHOS): 10%
